Experimental data as given in doi:10.1101/2024.08.19.608523 (bioRxiv, 2024).

Molecular target: microtubules (polymerized porcine brain tubulin) (porcine) (UniProt Q2XVP4)
Assay: co-sedimentation

Row | Molecule | Kd [µM]
1 | GAS2-GAR G255A (from UniProt P11862 198-314) (domain or fragment) | 2.69
2 | GAS2-GAR G255E (from UniProt P11862 198-314) (domain or fragment) | 9.6
3 | GAS2-GAR K266E (from UniProt P11862 198-314) (domain or fragment) | 10.6
4 | GAS2-GAR R242E (from UniProt P11862 198-314) (domain or fragment) | 5
5 | GAS2-GAR R252E (from UniProt P11862 198-314) (domain or fragment) | 47
6 | GAS2-GAR W257E (from UniProt P11862 198-314) (domain or fragment) | 27
7 | GAS2-GAR domain (residues 198-314) (domain or fragment) STGNLLDDAVKRISEDPPCKCPTKFCVERLSQGRYRVGEKILFIRMLHNKHVMVRVGGGWETFAGYLLKHDPCRMLQISRVDGKTSPVQSKSPTLKDMNPDNYLVVSATYKAKKEIK | 0.69

Molecular target: the molecule itself
Assay: SEC

Row | Molecule | stoichiometry N
8 | GAS2-GAR domain (residues 198-314) (domain or fragment) STGNLLDDAVKRISEDPPCKCPTKFCVERLSQGRYRVGEKILFIRMLHNKHVMVRVGGGWETFAGYLLKHDPCRMLQISRVDGKTSPVQSKSPTLKDMNPDNYLVVSATYKAKKEIK | 2
